According to patent US20220305006:

Legend:
[1] = biological target: T1, Peptide 65007
T1 chain: ALYPYFLPISAK

[2] = biological target: T2, Peptide 65005
T2 chain: NLTTYPYFIPL

[3] = biological target: recombinant sAPPα, human, amino acids 19-613, P05067
[4] = biological target: BACE inhibitor 1 (statine BACE inhibitor 1)

recombinant sAPPα, human, amino acids 19-613, P05067, sequence (P05067 19-613): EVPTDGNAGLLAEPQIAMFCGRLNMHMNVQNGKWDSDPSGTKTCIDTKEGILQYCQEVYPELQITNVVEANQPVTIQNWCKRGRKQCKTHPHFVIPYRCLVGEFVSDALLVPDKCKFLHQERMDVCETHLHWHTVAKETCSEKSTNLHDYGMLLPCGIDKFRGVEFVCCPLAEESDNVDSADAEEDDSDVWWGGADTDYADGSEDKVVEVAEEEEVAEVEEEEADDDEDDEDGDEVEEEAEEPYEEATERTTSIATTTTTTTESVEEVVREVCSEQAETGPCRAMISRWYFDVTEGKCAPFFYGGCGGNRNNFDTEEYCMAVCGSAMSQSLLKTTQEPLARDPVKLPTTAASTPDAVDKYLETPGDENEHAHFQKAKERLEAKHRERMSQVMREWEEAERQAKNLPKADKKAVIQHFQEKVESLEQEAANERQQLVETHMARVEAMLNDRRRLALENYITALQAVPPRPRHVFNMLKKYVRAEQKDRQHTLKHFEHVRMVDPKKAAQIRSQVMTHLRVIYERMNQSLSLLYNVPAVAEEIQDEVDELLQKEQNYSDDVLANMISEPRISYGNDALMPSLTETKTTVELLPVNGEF

B1: BACE in mouse primary cortical neurons (protein)
chain: ETDEESEEPGRRGSFVEMVDNLRGKSGQGYYVEMTVGSPPQTLNILVDTGSSNFAVGAAPHPFLHRYYQRQLSSTYRDLRKGVYVPYTQGKWEGELGTDLVSIPHGPNVTVRANIAAITESDKFFINGSNWEGILGLAYAEIARPDDSLEPFFDSLVKQTHIPNIFSLQLCGAGFPLNQTEALASVGGSMIIGGIDHSLYTGSLWYTPIRREWYYEVIIVRVEINGQDLKMDCKEYNYDKSIVDSGTTNLRLPKKVFEAAVKSIKAASSTEKFPDGFWLGEQLVCWQAGTTPWNIFPVISLYLMGEVTNQSFRITILPQQYLRPVEDVATSQDDCYKFAVSQSSTGTVMGAVIMEGFYVVFDRARKRIGFAVSACHVHDEFRTAAVEGPFVTADMEDCGYNIPQTDESTLMTIAYVMAAICALFMLPLCLMVCQWRCLRCLRHQHDDFADDISLLK
CHL1 and L1CAM cleavage (uncleaved substrate/α-tubulin OD ratio, immunoblot), 10 µM, 24 hours [1]: only BACE Inh 4 (blue) clearly inhibited cleavage; BACE Inh 1, peptides 65005 and 65007 and sAPPα did not | uncleaved NrCAM and neurofascin (immunoblot), 10 µM, 24 hours [1]: none of the other inhibitors increased the amount of uncleaved NrCAM or neurofascin substrate | CHL1 and L1CAM cleavage (uncleaved substrate/α-tubulin OD ratio, immunoblot), 10 µM, 24 hours [2]: only BACE Inh 4 (blue) clearly inhibited cleavage; BACE Inh 1, peptides 65005 and 65007 and sAPPα did not | uncleaved NrCAM and neurofascin (immunoblot), 10 µM, 24 hours [2]: none of the other inhibitors increased the amount of uncleaved NrCAM or neurofascin substrate | CHL1 and L1CAM cleavage (uncleaved substrate/α-tubulin OD ratio, immunoblot), 1 µM, 24 hours [3]: only BACE Inh 4 (blue) clearly inhibited cleavage; BACE Inh 1, peptides 65005 and 65007 and sAPPα did not | uncleaved NrCAM and neurofascin (immunoblot), 1 µM, 24 hours [3]: none of the other inhibitors increased the amount of uncleaved NrCAM or neurofascin substrate | CHL1 and L1CAM cleavage (uncleaved substrate/α-tubulin OD ratio, immunoblot), 10 µM, 24 hours [4]: only BACE Inh 4 (blue) clearly inhibited cleavage; BACE Inh 1, peptides 65005 and 65007 and sAPPα did not | uncleaved neurofascin (immunoblot), 10 µM, 24 hours [4]: Only BACE Inh 4 and BACE Inh 1 treatment resulted in an increase of uncleaved NrCAM or neurofascin, respectively
